Laboratory results as given in the supplement of paper PMC7877785.
± gives the uncertainty stated by the source.

Experiment: self-splicing fitness, log relative to wild type (ln ratio); higher = more splicing; Tetrahymena group I intron in knt gene, E. coli kanamycin selection, DiMSum; sequences stand for … in CUCUCU…GGAGGGAAAAGUUAUCAGGCAUGCACCUGGUAGCUAGUCUUUAAACCAAUAGAUUGCAUCGGUUUAAAAGGCAAGACCGUCAAAUUGCGGGAAAGGGGUCAACAGCCGUUCAGUACCAAGUCUCAGGGGAAACUUUGAGAUGGCCUUGCAAAGGGUAUGGUAAUAAGCUGACGGACAUGGUCCUAACCACGCAGCCAAGUCCUAAGUCAACAGAUCUUCUGUUGAUAUGGAUGCAGUUCACAGACUAAAUGUCGGUCGGGGAAGAUGUAUUCUUCUCAUAAGAUAUAGUCGGACCUCUCCUUAAUGGGAGCUAGCGGAUGAAGUGAUGCAACACUGGAGCCGCUGGGAACUAAUUUGUAUGCGAAAGUAUAUUGAUUAGUUUUGGAGUACUCGUGGUCG
Summary of the method: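 A randomised library covering all eight P1ex-region intron nucleotides was built with the intron in the knt kanamycin-resistance gene on pET-22b(+) and held in E. coli BL21(DE3). Cells were grown overnight at 37°C or 30°C on LB agar, with or without 25 μg/mL kanamycin, plus 100 μg/mL carbenicillin, 50 μM IPTG and 0.2% rhamnose, and pooled colonies were amplicon-sequenced on an Illumina HiSeq 2500. DiMSum fitness is the error-weighted combination of wild-type-normalised replicate fold changes, kanamycin versus none.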

Row | Sequence | self-splicing fitness (ln) (30 °C) | self-splicing fitness (ln) (37 °C)
1 | ACAAAGCAAUAUUACGAAUU | -3.38 ± 0.2 | -2.12 ± 0.18
2 | UACGAGCAAUAUUACGUUAU | -3.45 ± 0.12 | -2.24 ± 0.099
3 | UCCAAGCAAUAUUACGACAG | -3.81 ± 0.35 | -1.47 ± 0.26
4 | AAGUAGCAAUAUUACGGCUU | -1.4 ± 0.12 | -0.634 ± 0.14
5 | UUUCAGCAAUAUUACGCUAA | -1.25 ± 0.18 | -0.815 ± 0.17
6 | AGAAAGCAAUAUUACGCAAA | -3.28 ± 0.26 | -0.836 ± 0.13
7 | GAGCAGCAAUAUUACGAGCC | -0.545 ± 0.19 | -0.285 ± 0.21
8 | AGAGAGCAAUAUUACGCGAU | – | -2.82 ± 0.43
9 | GUUUAGCAAUAUUACGACGG | -2.88 ± 0.25 | -3.5 ± 0.47
10 | UUCGAGCAAUAUUACGUGGC | -1.49 ± 0.48 | –
11 | UAAUAGCAAUAUUACGAUGG | -3.31 ± 0.16 | -1.18 ± 0.13
12 | ACAUAGCAAUAUUACGCCUC | – | -1.29 ± 0.24
13 | CGCGAGCAAUAUUACGAACC | – | -0.306 ± 0.33
14 | UCUAAGCAAUAUUACGCAUC | -2.99 ± 0.13 | -3.33 ± 0.23
15 | ACUGAGCAAUAUUACGUCGC | -3.35 ± 0.26 | -2.18 ± 0.21
16 | GUAGAGCAAUAUUACGGGGG | -2.82 ± 0.26 | -2.22 ± 0.3
17 | GAGAAGCAAUAUUACGAUCG | -0.334 ± 0.094 | -0.068 ± 0.14
18 | AUAUAGCAAUAUUACGAUCG | -1.94 ± 0.12 | -0.815 ± 0.14
19 | CGUAAGCAAUAUUACGUAGA | -4.43 ± 0.3 | -3.25 ± 0.29
20 | AGACAGCAAUAUUACGGCGG | -2.25 ± 0.13 | -0.609 ± 0.14
21 | CUCCAGCAAUAUUACGCCAU | -3.28 ± 0.31 | -2.34 ± 0.25
22 | AAGGAGCAAUAUUACGCGGA | -2.07 ± 0.13 | -2.71 ± 0.2
23 | CUAUAGCAAUAUUACGGGAG | -2.58 ± 0.27 | -1.87 ± 0.28
24 | ACAUAGCAAUAUUACGUACG | -2.39 ± 0.12 | -1.87 ± 0.16
25 | CCCGAGCAAUAUUACGAGUG | -3.04 ± 0.17 | -1.99 ± 0.13

Row | Sequence | self-splicing fitness (ln) (30 °C) | self-splicing fitness (ln) (37 °C)
26 | UUGUAGCAAUAUUACGGGCC | – | -1.69 ± 0.38
27 | GAACAGCAAUAUUACGGACA | -1.3 ± 0.1 | -0.732 ± 0.09
28 | CAACAGCAAUAUUACGGCAG | -0.117 ± 0.069 | -0.00847 ± 0.076
29 | ACGAAGCAAUAUUACGGCCA | -0.778 ± 0.091 | 0.402 ± 0.095
30 | GGAAAGCAAUAUUACGCGAG | -0.597 ± 0.1 | 0.758 ± 0.1
31 | CCUUAGCAAUAUUACGGAGA | -3.46 ± 0.37 | -2.41 ± 0.42
32 | CACCAGCAAUAUUACGUGAA | -4.03 ± 0.14 | -0.875 ± 0.096
33 | CCAAAGCAAUAUUACGAAAA | -1.93 ± 0.17 | -2.85 ± 0.32
34 | UUCAAGCAAUAUUACGAACA | -2.07 ± 0.2 | -0.752 ± 0.13
35 | CAAUAGCAAUAUUACGUCUA | -2.78 ± 0.19 | -2.52 ± 0.21
36 | UUUAAGCAAUAUUACGGCCG | -0.19 ± 0.21 | -0.0514 ± 0.26
37 | AGUAAGCAAUAUUACGAGGG | -3.06 ± 0.18 | -2.87 ± 0.28
38 | GGAGAGCAAUAUUACGAGAC | -2.12 ± 0.22 | -1.88 ± 0.35
39 | CAAGAGCAAUAUUACGCUAU | -3.62 ± 0.38 | -2.19 ± 0.27
40 | GUCAAGCAAUAUUACGGUCA | -1.24 ± 0.12 | -0.86 ± 0.12
41 | UGUUAGCAAUAUUACGCCAA | -1.32 ± 0.19 | -1.4 ± 0.23
42 | AGUUAGCAAUAUUACGCACA | 0.242 ± 0.2 | 0.395 ± 0.28
43 | AUUAAGCAAUAUUACGAUAC | -1.93 ± 0.11 | -0.885 ± 0.15
44 | GAUCAGCAAUAUUACGGUUU | -0.544 ± 0.074 | -0.154 ± 0.098
45 | UCUUAGCAAUAUUACGCGCC | -3.51 ± 0.22 | -2.42 ± 0.22
46 | GGCAAGCAAUAUUACGUCCU | -1.39 ± 0.088 | -1.54 ± 0.11
47 | GGUUAGCAAUAUUACGCGAC | -2.02 ± 0.34 | -1.33 ± 0.27
48 | GCAGAGCAAUAUUACGCGCG | -2.8 ± 0.17 | -1.49 ± 0.14
49 | AGCGAGCAAUAUUACGGCUG | -1.47 ± 0.12 | -0.625 ± 0.15
50 | UGGGAGCAAUAUUACGGAGG | -3.43 ± 0.36 | –

Row | Sequence | self-splicing fitness (ln) (30 °C) | self-splicing fitness (ln) (37 °C)
51 | AGCCAGCAAUAUUACGUCUA | -3 ± 0.21 | -2.05 ± 0.19
52 | ACGAAGCAAUAUUACGAAUU | -3.63 ± 0.17 | -2.37 ± 0.15
53 | ACCCAGCAAUAUUACGUCCG | -3.83 ± 0.22 | -0.701 ± 0.14
54 | GCAUAGCAAUAUUACGCACA | -0.886 ± 0.11 | 0.000212 ± 0.091
55 | UACGAGCAAUAUUACGGCAC | – | -2.53 ± 0.41
56 | GAUCAGCAAUAUUACGCCAG | -3.32 ± 0.3 | -1.93 ± 0.31
57 | UCCUAGCAAUAUUACGGGAA | -1.84 ± 0.21 | -1.76 ± 0.14
58 | ACUGAGCAAUAUUACGCACC | -2 ± 0.4 | -2.15 ± 0.42
59 | CACAAGCAAUAUUACGAAAU | -2.91 ± 0.19 | -3.24 ± 0.24
60 | AGUAAGCAAUAUUACGACUC | -1.88 ± 0.13 | -0.797 ± 0.14
61 | GGUCAGCAAUAUUACGGCAG | -0.557 ± 0.081 | -0.497 ± 0.11
62 | UACUAGCAAUAUUACGUGUC | -3.38 ± 0.17 | -2.79 ± 0.15
63 | GGUAAGCAAUAUUACGACUG | -0.569 ± 0.12 | -0.0619 ± 0.14
64 | AAAAAGCAAUAUUACGACUC | 0.0755 ± 0.088 | 0.373 ± 0.11
65 | CUACAGCAAUAUUACGCUAC | -3.78 ± 0.22 | -2.25 ± 0.24
66 | CUUAAGCAAUAUUACGUUCA | -2.9 ± 0.27 | -3.79 ± 0.47
67 | UAUUAGCAAUAUUACGACCG | 0.0866 ± 0.13 | -0.0729 ± 0.16
68 | AGACAGCAAUAUUACGUUUA | -2.45 ± 0.094 | -0.782 ± 0.083
69 | GGGUAGCAAUAUUACGCAUA | – | -0.676 ± 0.24
70 | GAGGAGCAAUAUUACGGCAA | -2.41 ± 0.21 | -0.766 ± 0.26
71 | ACUCAGCAAUAUUACGUCUG | -3.57 ± 0.14 | -2.74 ± 0.16
72 | UUUGAGCAAUAUUACGAGCU | -2.69 ± 0.39 | –
73 | CAGAAGCAAUAUUACGACGC | -3 ± 0.14 | -1.28 ± 0.12
74 | AAUAAGCAAUAUUACGACUC | 0.0667 ± 0.14 | 0.341 ± 0.2
75 | GAUUAGCAAUAUUACGAGCC | -0.73 ± 0.31 | -1.4 ± 0.38

Row | Sequence | self-splicing fitness (ln) (30 °C) | self-splicing fitness (ln) (37 °C)
76 | CCUGAGCAAUAUUACGAUUG | -2.48 ± 0.17 | -2.83 ± 0.27
77 | GGAUAGCAAUAUUACGGAUA | – | -1.56 ± 0.26
78 | CCGCAGCAAUAUUACGCGAA | -2.87 ± 0.18 | -2.5 ± 0.18
79 | CAAAAGCAAUAUUACGGAGU | -3.64 ± 0.14 | -2.56 ± 0.16
80 | ACUCAGCAAUAUUACGGUCG | -3.23 ± 0.12 | -1.33 ± 0.1
81 | UGGUAGCAAUAUUACGGCGU | -1.44 ± 0.12 | -0.737 ± 0.12
82 | ACCGAGCAAUAUUACGAAUA | -3.02 ± 0.32 | -2.41 ± 0.2
83 | UACCAGCAAUAUUACGUACA | -0.719 ± 0.071 | -0.432 ± 0.1
84 | CCAGAGCAAUAUUACGUAGU | -4.61 ± 0.22 | -2.87 ± 0.21
85 | CACAAGCAAUAUUACGUACG | -0.467 ± 0.063 | 0.449 ± 0.083
86 | AGAGAGCAAUAUUACGGUUA | -3.1 ± 0.25 | -1.83 ± 0.21
87 | CACUAGCAAUAUUACGCGGG | -2.48 ± 0.13 | -2.01 ± 0.15
88 | AAUUAGCAAUAUUACGGUUU | -1.16 ± 0.063 | -0.716 ± 0.089
89 | ACGGAGCAAUAUUACGUCCG | -3.13 ± 0.37 | -2.36 ± 0.42
90 | GCGGAGCAAUAUUACGACUU | -0.726 ± 0.15 | -1.48 ± 0.29
91 | GCUAAGCAAUAUUACGGCAU | -2.13 ± 0.1 | -0.863 ± 0.12
92 | UCCGAGCAAUAUUACGACUA | -2.51 ± 0.28 | -2.21 ± 0.27
93 | GAUAAGCAAUAUUACGACGA | -0.165 ± 0.12 | -0.626 ± 0.11
94 | UCCUAGCAAUAUUACGAGUG | -2.1 ± 0.1 | -0.96 ± 0.1
95 | UCAUAGCAAUAUUACGAGCA | -0.736 ± 0.2 | -1.11 ± 0.23
96 | UGGUAGCAAUAUUACGUAUG | -1.66 ± 0.13 | -1.18 ± 0.13
97 | UGCAAGCAAUAUUACGGGAC | -4 ± 0.37 | –
98 | CACAAGCAAUAUUACGAAAG | -0.721 ± 0.08 | 0.0107 ± 0.1
